Assay results published in patent publication WO2018102654A1 (dated 2018).
Values belong to the binder of their own block, whether it stands above or below them.

Biological target: gastric inhibitory polypeptide (GIP), species not stated
Experiment: modified Schild's assay plot, reporter cell line expressing GIP receptors

gastric inhibitory polypeptide (GIP), species not stated, sequence (P09681 52-93): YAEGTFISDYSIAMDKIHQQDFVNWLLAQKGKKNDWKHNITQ

Kd: 3200 nM
B1: 10g10 monoclonal antibody (original mouse mAb from hybridoma 10g10) (antibody, V domains shown)
VH: QVQLQESGAELVRSGASVKLSCTASGFNIRDYYLHWIKQRPEQGLEWIGWIDPENGDTEYAPKFQDKATVTADTSSNTAYLQLNSLTSEDTAVYYCNVYGIYFMDYWGQGTTVTVSS
VL: DIQLTQSPSTMAASPGEKITITCSASSSISSNSLHWYQQKPGFSPKLLIYRTSNLASGVPGRFSGSGSGTSYSLTIGTMETEDVATYYCQQGSSFPRMLTFGTGTKLEIKR
notes: Mouse antibody from a hybridoma; also called 10g10 mAb; 10g10 GIP mAb

Kd: 2200 nM
B2: LC2/HC2 humanized antibody (antibody, V domains shown)
VH: QVQLVQSGAEVKKPGATVKISCKASGFNIRDYYLHWVQQAPGKGLEWMGWIDPENGDTEYAPKFQGRVTITADTSTNTAYMELSSLRSEDTAVYYCNVYGIYFMDYWGQGTMVTVSS
VL: DIQLTQSPSSVSASVGDRVTITCRASSSISSNSLHWYQQKPGKAPKLLIYRTSNLQSGVPSRFSGSGSGTDYTLTISSLQPEDFATYYCQQGSSFPRMLTFGQGTKLEIKR
notes: CHO supernate in the ELISA; Protein A purified in the neutralization assay; also called mAbH; GIP mAbH
